Reference: PMC4387718, “In vivo biochemical analyses reveal distinct roles of β-importins and eEF1A in tRNA subcellular traffic” (Genes & Development, 2015)

T1: MORF (His6-HA epitope-ZZ protein A)-tagged Msn5 (S. cerevisiae, UniProt P52918 1-1224)
T1 construct: Msn5, beta-importin family member (yeast exportin-5 homolog), S. cerevisiae; Tagged protein is functional; also called Msn5-M; exportin-5 homolog; source: S. cerevisiae, endogenous promoter on a yeast episomal (YEp) vector, in cell extract
T1 sequence (looked up): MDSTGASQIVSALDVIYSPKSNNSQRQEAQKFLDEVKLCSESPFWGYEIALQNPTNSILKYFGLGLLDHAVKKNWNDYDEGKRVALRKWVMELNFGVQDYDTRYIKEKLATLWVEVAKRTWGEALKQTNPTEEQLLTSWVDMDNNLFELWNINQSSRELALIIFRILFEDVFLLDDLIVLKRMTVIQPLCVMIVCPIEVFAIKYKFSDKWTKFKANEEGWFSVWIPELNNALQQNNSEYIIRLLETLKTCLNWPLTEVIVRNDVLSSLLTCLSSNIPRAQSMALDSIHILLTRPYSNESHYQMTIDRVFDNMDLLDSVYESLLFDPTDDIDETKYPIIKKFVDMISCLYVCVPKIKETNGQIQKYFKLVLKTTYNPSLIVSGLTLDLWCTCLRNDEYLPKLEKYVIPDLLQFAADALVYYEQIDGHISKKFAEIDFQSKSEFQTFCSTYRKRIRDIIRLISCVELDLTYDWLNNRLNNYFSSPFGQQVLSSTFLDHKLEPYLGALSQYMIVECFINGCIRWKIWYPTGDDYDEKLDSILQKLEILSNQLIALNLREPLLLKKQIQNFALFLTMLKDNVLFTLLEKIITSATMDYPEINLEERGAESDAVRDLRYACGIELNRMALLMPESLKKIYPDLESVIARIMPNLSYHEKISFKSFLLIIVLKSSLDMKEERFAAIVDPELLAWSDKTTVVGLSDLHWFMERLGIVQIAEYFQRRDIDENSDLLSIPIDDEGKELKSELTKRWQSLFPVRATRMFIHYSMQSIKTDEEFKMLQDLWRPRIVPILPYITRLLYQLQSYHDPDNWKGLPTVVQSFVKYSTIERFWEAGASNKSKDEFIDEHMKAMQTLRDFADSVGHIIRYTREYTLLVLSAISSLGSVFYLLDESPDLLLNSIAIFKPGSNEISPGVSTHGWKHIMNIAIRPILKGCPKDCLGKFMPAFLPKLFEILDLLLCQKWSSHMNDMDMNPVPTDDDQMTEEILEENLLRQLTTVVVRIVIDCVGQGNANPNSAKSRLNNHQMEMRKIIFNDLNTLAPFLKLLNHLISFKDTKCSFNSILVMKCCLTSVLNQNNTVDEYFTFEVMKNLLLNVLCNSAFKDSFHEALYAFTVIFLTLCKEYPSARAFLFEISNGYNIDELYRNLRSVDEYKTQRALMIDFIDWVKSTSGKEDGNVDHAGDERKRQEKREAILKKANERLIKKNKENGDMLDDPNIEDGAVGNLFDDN


Assays:
[1] = target: T1, MORF (His6-HA epitope-ZZ protein …); experiment: co-IP; cells with locked RanGTP, formaldehyde cross-linked; extract treated with RNase A prior to purification of the beta-importin on IgG beads; Western blot with anti-eEF1A; conditions: partners not purified
[2] = target: T1, MORF (His6-HA epitope-ZZ protein …); experiment: co-IP; cells with RanGTP-locked mutant, without cross-linking; complex immunoprecipitated on beads first and then treated with RNase A (condition R*); Western blot with anti-eEF1A; conditions: partners not purified

Binder	percent of copurified Tef1/2 relative to mock treatment [1] [%]	percent of copurified Tef1/2 relative to mock treatment [2] [%]
untagged Tef2 (natural protein, S. cerevisiae (endogenous in yeast), UniProt P02994 1-458, looked up, Tef2, yeast translation elongation factor 1 alpha (eEF1A), product of TEF2; Detected with anti-eEF1A; comigrates with Tef1-Myc; also called Tef1/2; eEF1A; source: endogenous, S. cerevisiae cell extract) MGKEKSHINVVVIGHVDSGKSTTTGHLIYKCGGIDKRTIEKFEKEAAELGKGSFKYAWVLDKLKAERERGITIDIALWKFETPKYQVTVIDAPGHRDFIKNMITGTSQADCAILIIAGGVGEFEAGISKDGQTREHALLAFTLGVRQLIVAVNKMDSVKWDESRFQEIVKETSNFIKKVGYNPKTVPFVPISGWNGDNMIEATTNAPWYKGWEKETKAGVVKGKTLLEAIDAIEQPSRPTDKPLRLPLQDVYKIGGIGTVPVGRVETGVIKPGMVVTFAPAGVTTEVKSVEMHHEQLEQGVPGDNVGFNVKNVSVKEIRRGNVCGDAKNDPPKGCASFNATVIVLNHPGQISAGYSPVLDCHTAHIACRFDELLEKNDRRSGKKLEDHPKFLKSGDAALVKFVPSKPMCVEAFSEYPPLGRFAVRDMRQTVAVGVIKSVDKTEKAAKVTKAAQKAAKK	~90	~40
endogenously 3Myc-tagged Tef1 (natural protein, S. cerevisiae, UniProt P02994 1-458, looked up, Tef1, yeast translation elongation factor 1 alpha (eEF1A), product of TEF1; Detected with anti-eEF1A and anti-Myc; comigrates with untagged Tef2, so the anti-eEF1A signal called Tef1/2 is of both; also called Tef1-Myc; Tef1/2; source: endogenously tagged, S. cerevisiae cell extract) MGKEKSHINVVVIGHVDSGKSTTTGHLIYKCGGIDKRTIEKFEKEAAELGKGSFKYAWVLDKLKAERERGITIDIALWKFETPKYQVTVIDAPGHRDFIKNMITGTSQADCAILIIAGGVGEFEAGISKDGQTREHALLAFTLGVRQLIVAVNKMDSVKWDESRFQEIVKETSNFIKKVGYNPKTVPFVPISGWNGDNMIEATTNAPWYKGWEKETKAGVVKGKTLLEAIDAIEQPSRPTDKPLRLPLQDVYKIGGIGTVPVGRVETGVIKPGMVVTFAPAGVTTEVKSVEMHHEQLEQGVPGDNVGFNVKNVSVKEIRRGNVCGDAKNDPPKGCASFNATVIVLNHPGQISAGYSPVLDCHTAHIACRFDELLEKNDRRSGKKLEDHPKFLKSGDAALVKFVPSKPMCVEAFSEYPPLGRFAVRDMRQTVAVGVIKSVDKTEKAAKVTKAAQKAAKK	~90	~40
